# Non-standard residues stand in square brackets, D forms with d. No end group written: not given here. Alexa 488 = Alexa Fluor 488 fluorescent dye; Nle = CCCC[C@H](N)C(=O)O
# T1: type 1 cholecystokinin receptor (CCK1R) (Homo sapiens, UniProt P32238)
# T1 construct: gene CCKAR; CHO-CCK1R cells and membranes
# T1 sequence (P32238 1-428): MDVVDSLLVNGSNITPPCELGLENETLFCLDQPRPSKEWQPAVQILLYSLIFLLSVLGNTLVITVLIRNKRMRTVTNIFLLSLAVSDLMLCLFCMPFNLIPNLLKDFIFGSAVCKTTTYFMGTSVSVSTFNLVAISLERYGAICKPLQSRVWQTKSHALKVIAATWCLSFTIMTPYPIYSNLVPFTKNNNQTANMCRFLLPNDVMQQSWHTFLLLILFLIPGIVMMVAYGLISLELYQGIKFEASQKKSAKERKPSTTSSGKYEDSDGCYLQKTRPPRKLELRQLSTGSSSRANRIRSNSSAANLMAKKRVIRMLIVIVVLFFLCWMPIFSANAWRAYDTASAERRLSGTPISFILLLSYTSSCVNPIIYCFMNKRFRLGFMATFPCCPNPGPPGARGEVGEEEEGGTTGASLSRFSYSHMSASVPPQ
# T2: human type 1 cholecystokinin receptor (CCK1R), CHO-CCK1R cell line (human, UniProt P32238 1-428)
# T2 construct: type 1 cholecystokinin receptor, human, wild type; also called human CCK1R; WT CCK1R; source: CHO-K1 cell line stably expressing the receptor (CHO-CCK1R); intact cells and membranes
# T2 sequence (looked up): T1 sequence (P32238 1-428)
# T3: rat type 1 CCK receptor (rat), P30551
# T3 chain: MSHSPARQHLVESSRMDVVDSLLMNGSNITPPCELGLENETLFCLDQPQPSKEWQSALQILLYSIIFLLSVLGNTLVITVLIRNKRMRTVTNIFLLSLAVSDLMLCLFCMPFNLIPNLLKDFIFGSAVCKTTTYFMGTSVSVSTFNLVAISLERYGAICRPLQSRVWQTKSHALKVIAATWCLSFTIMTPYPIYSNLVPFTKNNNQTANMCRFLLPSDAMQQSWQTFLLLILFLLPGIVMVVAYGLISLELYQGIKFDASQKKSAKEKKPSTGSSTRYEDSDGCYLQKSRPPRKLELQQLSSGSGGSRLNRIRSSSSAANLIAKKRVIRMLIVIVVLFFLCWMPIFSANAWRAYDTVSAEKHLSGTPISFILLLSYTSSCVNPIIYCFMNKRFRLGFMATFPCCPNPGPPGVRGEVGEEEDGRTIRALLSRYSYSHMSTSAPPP
# B1: alexa^488-D-Tyr-Gly-[(Nle^28,31)CCK-26-33] (peptide)
# chain: {Alexa 488}-[dY]GDY[Nle]GW[Nle]DF
# modifications: ends and bridges not checked
# B2: Synthetic CCK-26-33 (CCK-8) (peptide)
# chain: DYMGWMDF
# modifications: not checked
# Columns and labels:
# [1] = molecular target: T1, type 1 cholecystokinin receptor (CCK1R); assay: fluorescence polarization kinetics (slowed alexa488-CCK off-rate); calcium assay fitted with operational allosteric model; format: cell-based
# [2] = molecular target: human type 1 cholecystokinin receptor (CCK1R), CHO-CCK1R cell line (human) (UniProt P32238)
# [3] = molecular target: T2, human type 1 cholecystokinin receptor …; assay: fluorescence polarisation; alexa488-CCK (3.2 nM) added to CHO-CCK1R membranes in KRH buffer, pH 7.4, 0.2% bovine serum albumin; dissociation started with 1 µM unlabeled CCK-8; absence of Compound 1; details: one partner purified
# [4] = molecular target: Cynomolgus monkey CCK1R (Cynomolgus monkey)
# [5] = molecular target: Cynomolgus monkey CCK1R (Cynomolgus monkey); assay: radioligand binding; radioligand competition-binding assay on intact receptor-expressing cells; radioiodinated D-Tyr-Gly-[(Nle28,31)CCK-26-33] as radioligand, unlabeled CCK as competitor; duplicates, at least three independent experiments
# [6] = molecular target: T3, rat type 1 CCK receptor (rat), P30551
molecule,measurement,setting,value
"C=C[C@H]1CN2CC[C@H]1C[C@@H]2CNC(=O)Nc1cccc(C(F)(F)F)c1 [Compound 1, 3-[(1S,2R,4S,5R)-5-ethenyl-1-azabicyclo[2.2.2]octan-2-yl]methyl-1-[3-(trifluoromethyl)phenyl]urea]",Kb,[1],251 µM
Synthetic CCK-58 (peptide),"pEC50 for CCK, peak intracellular calcium response in CHO cells expressing human CCK1R, + 10 µM Compound 1",[2],9.9
same,"pEC50 for CCK, peak intracellular calcium response in CHO cells expressing human CCK1R, control",[2],9.1
B1,koff,[3],0.0217 s⁻¹
same,kon,[3],2.33e+06 M⁻¹ s⁻¹
B2,"pEC50 for CCK, peak intracellular calcium response in CHO cells expressing Cynomolgus monkey CCK1R, control",[4],11.2
same,pKi,[5],8.6
same,"pEC50 for CCK, peak intracellular calcium response in CHO cells expressing rat CCK1R, + 10 µM Compound 1",[6],11.9

# — PMC8689142, “Discovery of a Positive Allosteric Modulator of Cholecystokinin Action at CCK1R in Normal and Elevated Cholesterol” (Frontiers in Endocrinology, 2021)
